Source: patent publication US20170296650A1 (Novartis, published 2017)

B1: 8L13 (antibody, V domains shown)
VH: QVQLLESGGGVVQPGRSLRLSCAASGFTFSNYGMHWVRQAPGKGLEWVAVIWNDGSKKYYAESVKGRFTISRDNSKNTVYLQMNSLRAEDTAVYYCARDEGVQMVFAMPDYGMDVWGQGTTVTVSS
VL: SYELTQPPSVSVSPGQTASITCSGDKLGDKFACWYQQRPGQSPILVIYQDSKRPSGIPERFSGSNSGNTATLTIRGTQAMDEADYYCQAWDSSTAHYVFGTGTKVTVL
notes: human IgG
B2: 10P3 (antibody, V domains shown)
VH: EVQLVESGGGLVRPGGSLRLSCAASGFTFHNYRMNWVRQAPGKGLEWVANIKQDGSEKSYVDSVRGRFTTSRDNSKNSLYLQINSLRAEDTAVYYCARGEGYTYGVVYSYSAMDVWGQGTTVIVSS
VL: SYELTQPPSVSVSPGQTARITCSGNVLPNQYASWYQQKPGQAPVLVIYKDTERPSGIPGRFSGSSSGTTVTLTISGVQAEDEADYYCQSADSSGADYVFGTGTKVTVL
notes: human IgG
B3: 10F7 (antibody, V domains shown)
VH: EVQLVESGGGLVQPGRSLRLSCTASGFTFGDYAMSWFRQAPGKGLEWVGFIRSKAYGGTTEYAASVKGRFTISRDDSKSIAYLQMNSLKTEDTAVYYCTRASSLLWLLNPQPNFDYWGQGTLVTVSS
VL: SYVLTQPPSVSVAPGQTARITCGGNNIGSNNVHWYQQKPGQAPVLVVYDDSDRPSGIPERFSGSNSGNTATLTISRVEAGDEADYYCQVWDSSSDHPVFGGGTKLTVL
notes: human IgG; also called 10F7-biotin
B4: 7B13 (antibody, V domains shown)
VH: QVQLVESGGGVVQPGGSLRLSCAASGFSFSNYGMHWVRQAPGKGLEWVALIPSDGNYQYYTDSVKGRFTVSRDNSRNTLYLQMKSLRAEDTARYHCAHLGGGLFDFWGQGTLVTVSS
VL: QSALNQPRSVSGSPGQSVSISCTGSSSDVGGYEFVSWYQHHPGKAPKLIIYDVDKRPSGVPDRFSGSRSGDTASLTISGLQAEDEADYYCYSSADTWVFGGGTKLTVL
notes: human IgG
B5: 4N10 (antibody, V domains shown)
VH: QVQLVQSGAEVKKPGSSVRVSCKASGGTFSSYVIIWVRQAPGQGLEWMGGVIPIFDTVNYAQKFQGRVTITADESTSTAYMELSSLKSEDTAVYYCARGILAYCGGDCYNTPYGMDVWGQGTTVTVSS
VL: DIQMTQSPSILSASVGDRVTITCRASQSISSWLAWYQQKPGKAPKLLIYKASSLEIGVPSRISGSGSGTEFTLTISSLQPDDFATYYCQQYNSSWTFGQGTKVEIK
notes: human IgG; also called 4N10-biotin
B6: 3G16 (antibody, V domains shown)
VH: QSALTQPASVSGSPGESITISCTGTISDVGAYNSVSWYQQHSGTAPELIIYDVTNRPAGVSSRFSGSKSGNTASLTISWLQSEDEAEYYCSSYTTSDTYVFGSGTQVTVL
V domain: RAQLVQSAAEMKNPGASVKVSCEASGYTFTGYYVHWMRQAPGQGLEWMGWINPMTGATKSPQKFQGRVTMTRDTSTTATHIELTRLRSDDSAVFFCARGGPTSTRITGKRHFDLWGRGTLITVAS
notes: human IgG; also called 3G16-biotin
B7: 13H11 (antibody, V domains shown)
VH: QVQLVQSGAEVKKPGASVKVSCKASGYTFTNYYIHWVRQAPGQGLEWMGIIHPSSGGTSYAQKFQGRVTMTRDTSTSTVSMDLSSLRSEDTAVYYCGRAFRILGLSDVFVNDWGQGTVVTVSS
VL: DIQMTQSPSSLSASVGDRVTITCRASQGINNYLAWYQQKPGKVPKLLIYAASTLQSGVPSRFSGSGSGTAFTLTILSLQPEDVATYYCQKYNSAPFTFGPGTKVDIK
B8: 11B12 (antibody, V domains shown)
VH: QMQLVQSGPQVKKPGTSVKVSCKASGFTFTSSAMQWVRQARGQRPEWIGWIVLGSGNTNYAQKFQERVTLTRDMSTATAYMELSSLRSEDTAVYYCAADRGRGGYNVYTYWGQGTLVAVSS
VL: EIVMTQSPGTLSLSPGERATLSCRASQTISNTYVAWYQQKPGQAPRLLIYGASSRATGIPDRFSGSGSGTDFTLTIRRLEPEDFAVYYCQQNGQSPWTFGQGTNVEIK

What was measured:
[1] = molecular target: T1, hCMV UL130 + UL131A (HEK293T co-transfectant) (hCMV, UniProt P16772 1-214); test: cell-based or functional assay
T1 sequence (P16772 whole entry): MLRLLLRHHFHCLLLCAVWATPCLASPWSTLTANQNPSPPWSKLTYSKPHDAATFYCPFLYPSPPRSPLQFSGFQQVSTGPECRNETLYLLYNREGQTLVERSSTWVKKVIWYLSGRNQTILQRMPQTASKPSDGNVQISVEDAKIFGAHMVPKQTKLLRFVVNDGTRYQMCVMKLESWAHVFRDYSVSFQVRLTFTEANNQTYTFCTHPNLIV

[2] = molecular target: T2, hCMV gH + gL + UL128 + UL130 + UL131A (5-member complex; HEK293T co-transfectant) (hCMV, UniProt P12824 24-743; P16832 31-278; P16837 1-171; P16772 1-214); test: cell competition; competitor 10F7-biotin
T2 construct: whole, on cells; in the functional rows it stands for the complex on virions or transduced cells of the strain or isolate named in the readout; also called gH/gL/UL128-131A complex; pentameric complex

[3] = molecular target: T1, hCMV UL130 + UL131A (HEK293T …); test: cell-based or functional assay; remark: listed apart in the source
[4] = molecular target: T2, hCMV gH + gL + UL128 + UL130 + UL131A …; test: cell competition; competitor 1F11-biotin
[5] = molecular target: T2, hCMV gH + gL + UL128 + UL130 + UL131A …; test: cell competition; competitor 6G4-biotin
[6] = molecular target: T2, hCMV gH + gL + UL128 + UL130 + UL131A …; test: cell competition; competitor 2C12-biotin
[7] = molecular target: T2, hCMV gH + gL + UL128 + UL130 + UL131A …; test: cell competition; competitor 15D8-biotin
[8] = molecular target: T2, hCMV gH + gL + UL128 + UL130 + UL131A …; test: cell competition; competitor 8I21-biotin
[9] = molecular target: T2, hCMV gH + gL + UL128 + UL130 + UL131A …; test: cell competition; competitor 4I22-biotin
[10] = molecular target: T2, hCMV gH + gL + UL128 + UL130 + UL131A …; test: cell competition; competitor 2F4-biotin
[11] = molecular target: T2, hCMV gH + gL + UL128 + UL130 + UL131A …; test: cell competition; competitor 5A2-biotin
[12] = molecular target: T2, hCMV gH + gL + UL128 + UL130 + UL131A …; test: cell competition; competitor 4N10-biotin
[13] = molecular target: T3, hCMV UL128 + UL130 + UL131A (HEK293T co-transfectant) (hCMV, UniProt P16837 1-171; P16772 1-214); test: cell-based or functional assay
T3 sequence (P16837 whole entry, chain 1 of 2): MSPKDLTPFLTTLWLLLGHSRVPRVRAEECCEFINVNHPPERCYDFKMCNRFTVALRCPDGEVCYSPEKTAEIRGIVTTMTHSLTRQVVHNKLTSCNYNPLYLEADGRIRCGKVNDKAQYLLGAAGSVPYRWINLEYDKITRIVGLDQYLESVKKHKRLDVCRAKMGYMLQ
T3 sequence (P16772 whole entry, chain 2 of 2): as the sequence (P16772 whole entry) above

[14] = molecular target: T2, hCMV gH + gL + UL128 + UL130 + UL131A …; test: cell competition; competitor 9I6-biotin
[15] = molecular target: T3, hCMV UL128 + UL130 + UL131A (HEK293T …); test: cell-based or functional assay; remark: listed apart in the source
[16] = molecular target: T2, hCMV gH + gL + UL128 + UL130 + UL131A …; test: cell competition; competitor 8J16-biotin
[17] = molecular target: T2, hCMV gH + gL + UL128 + UL130 + UL131A …; test: cell competition; competitor 8C15-biotin
[18] = molecular target: T4, hCMV gH (HEK293T transfectant) (hCMV, UniProt P12824 24-743); test: cell-based or functional assay
[19] = molecular target: T4, hCMV gH (HEK293T transfectant); test: cell-based or functional assay; remark: listed apart in the source

Binder	50% neutralization VR1814, ARPE [1]	50% neutralization VR1814, MRC-9 [1]	Inhibition of binding (%) [2]	90% neutralization VR1814, ARPE [3]	90% neutralization VR1814, MRC-9 [3]	Inhibition of binding (%) [4]	Inhibition of binding (%) [5]	Inhibition of binding (%) [6]	Inhibition of binding (%) [7]	Inhibition of binding (%) [8]	Inhibition of binding (%) [9]	Inhibition of binding (%) [10]	50% neutralization VR1814, ARPE [18]	50% neutralization VR1814, MRC-9 [18]	90% neutralization VR1814, ARPE [19]	90% neutralization VR1814, MRC-9 [19]	other results
B1	< 0.01 µg/mL	> 2 µg/mL	100%	0.001 µg/mL	> 10 µg/mL	100%	–	–	–	–	–	–	–	–	–	–	–
B2	< 0.001 µg/mL	> 2 µg/mL	–	0.0025 µg/mL	> 10 µg/mL	0%	0%	0%	0%	0%	0%	0%	–	–	–	–	–
B3	< 0.01 µg/mL	≤ 2 µg/mL	100%	0.002 µg/mL	> 10 µg/mL	100%	0%	0%	0%	0%	100%	100%	–	–	–	–	Inhibition of binding (%) [11]: 0%; Inhibition of binding (%) [12]: 0%
B4	–	–	–	–	–	–	100%	100%	–	0%	–	–	–	–	–	–	50% neutralization VR1814, ARPE [13]: < 0.001 µg/mL; 50% neutralization VR1814, MRC-9 [13]: > 2 µg/mL; Inhibition of binding (%) [14]: 100%; 90% neutralization VR1814, ARPE [15]: 0.003 µg/mL; 90% neutralization VR1814, MRC-9 [15]: > 10 µg/mL; Inhibition of binding (%) [16]: 100%; Inhibition of binding (%) [17]: 100%
B5	< 0.001 µg/mL	≤ 2 µg/mL	0%	0.02 µg/mL	> 10 µg/mL	0%	0%	0%	0%	90%	0%	0%	–	–	–	–	Inhibition of binding (%) [11]: 100%; Inhibition of binding (%) [12]: 100%
B6	–	–	–	–	–	–	0%	0%	–	0%	–	–	≤ 2 µg/mL	≤ 2 µg/mL	0.3 µg/mL	1 µg/mL	–
B7	–	–	–	–	–	–	–	–	–	–	–	–	< 0.01 µg/mL	≤ 2 µg/mL	0.4 µg/mL	1.12 µg/mL	–
B8	–	–	–	–	–	–	–	–	–	–	–	–	≤ 2 µg/mL	≤ 2 µg/mL	1.2 µg/mL	3.5 µg/mL	–
